Data set [1] concerns S. Typhimurium biofilm. The experiment in a line: S. Typhimurium biofilms with or without ALZ.3H3, then ampicillin or DNase for 24 hours, Syto9 imaging. Format: cell-based. To be noted: for Overall biofilm appearance: wildtype biofilms treated alone for 24 hours after biofilm establishment. The source says: Biofilms enhance the recalcitrance of bacteria to antibiotics (Keren et al., 2004, FEMS Microbiol Lett, 230(1):13-8, Brown et al., 1988, J Antimicrob Chemother, 22(6):777-80, Stewart, 2002, Int J Med Microbiol, 292(2):107-13). To enhance the clearance of bacterial biofilms, the structure of the biofilm was altered by employing ALZ.3H3 and then the biofilm was subjected to antibiotics to kill the bacteria within the disperse biofilm. […] an additional integral component of S. Typhimurium biofilms, wildtype or ALZ.3H3 incubated biofilms were exposed to X DNase treatment for an additional 24 hours. Biofilms were then stained with Syto9 and visualized using CSML. Excessive washing steps were avoided in aims to examine the architecture of the biofilms.

For data set [2], the system named is S. Typhimurium biofilm. The experiment in a line: S. Typhimurium biofilms established in presence of mAb, Syto9 stain, CSLM, ImageJ particle count, supernatant plating. To be noted: 0.5 mg/ml. It counts as cell-based. The method, then:
After growth, biofilms were stained with Syto9 and imaged using CSLM. Three dimensional architecture was examined by creating 3D surface plots using ImageJ. […] To quantify the disperse biofilm created by treatment with ALZ.3H3, through the use of ImageJ all particles above the thickness of a wild-type S. Typhimurium ([…]) was used to set the threshold value, and these threshold parameters were applied to subsequent treatments (FIG. 1B). […] The bacteria recovered from the supernatants is representative of the loose disperse biofilm matrix that is easily dissociated from the biomass.

Data set [3] concerns pre-established S. Typhimurium biofilms. Kind of data set: mAb added to pre-established S. Typhimurium biofilms, CSLM and particle count. Format: cell-based. As to the method: To determine if ALZ.3H3 can reduce biofilm formation of pre-established biofilms of S. Typhimurium, 0.5 mg/ml of ALZ.3H3 was added for an additional 24 hours to a 24 hour pre-established biofilm of S. Typhimurium, or 0.5 mg/ml of ALZ.3H3 was added for 24 hours to a 48 hour pre-established biofilms. These biofilms were then compared, respectively, to a 48 and 72 hour S. Typhimurium biofilm that was not exposed to ALZ.3H3 (FIG. 2A). Biofilms were stained with Syto9 and imaged using CSML. Biofilms were not wash extensively in order determine the impact of ALZ.3H3 on biofilm architecture. […] Using the thresholding technique described earlier, the number of particles above the thickness of the wild-type S. Typhimurium were counted.

Data set [4] has as its system Histadine tagged CsgA (His-CsgA), curli. Kind of data set: Thioflavin T (ThT) fibrillization assay of His-CsgA. It counts as biochemical. The method, then: The formation of monomers into mature curli fibrils can be monitored by incubation with Thioflavin T (ThT). Fluorescence of ThT increases as it binds to amyloid fibril, allowing the amyloid formation process to be measured spectroscopically. The formation of amyloid fibers can be defined by a three stage sigmoidal curve (Dueholm et al., 2011, Biochemistry, 50(39):8281-90; Wang et al., 2007, J Biol Chem, 282(6):3713-9). In the first stage, monomeric subunits are slow to self-associate and ThT fluorescence is minimal (Naiki et al., 1991, Lab Invest, 65(1):104-10). The reaction exponential increases as monomeric seeds oligomerize and continue to elongate (Naiki et al., 1991, Lab Invest, 65(1):104-10). This process is marked by a rapid increase in ThT fluorescence (Naiki et al., 1991, Lab Invest, 65(1):104-10). The oligomers elongate into mature fibrils and Tht fluorescence peaks (Dueholm et al., 2011, Biochemistry, 50(39):8281-90; Wang et al., 2007, J Biol Chem, 282(6):3713-9). […] Histadine tagged CsgA (His-CsgA), which will naturally self-associate and fibrillize, was incubated with 0.5 mg/ml ALZ.3H3 and the fibrillization reaction was monitored using ThT. As controls synthetic peptides CsgAR4-5 and CsgAR4-5N122A were incubated with Tht and the fribrillization reaction was monitored in parallel. […]

The subject of data set [5] is tau paired helical filaments (TAU PHF) isolated from AD brain homogenates. The experiment in a line: SPR binding to tau paired helical filaments. Conditions: antibody concentration 66.7 nM. As to the method: FIG. 14 depicts a surface plasma resonance (SPR) analysis for binding to aggregated islet amyloid peptide IAPP and tau paired helical filaments (TAU PHF) isolated from AD brain homogenates. The antibody concentrations used in this study were 110 nM for the IAPP and 66.7 nM for the Tau-PHF.
Human mAbs were assayed by SPR for binding to aggregated islet amyloid peptide IAPP and tau paired helical filaments (TAU PHF) isolated from AD brain homogenates (FIG. 14). The antibody concentrations used in this study were 110 nM for the IAPP and 66.7 nM for the Tau-PHF.
In general terms: SPR reads the build-up and loss of mass on a sensor chip optically.

The next data set relates to E. coli UTI89 biofilm. Kind of data set: Colony forming units per biofilm on glass coverslips, E. coli UTI89.
Data set [6] relates to S. Typhimurium (STM) biofilm. Kind of data set: Colony forming units per biofilm on glass coverslips, S. Typhimurium.
Method: (§1) Biofilms of S. Typhimurium (STM) or E. coli UTI89 grown in the absence or presence of 3H3 (250 ug/ml, 125 ug/ml, 50 ug/ml, 25 ug/ml, 10 ug/ml, 1 ug/ml) as well as grown with 0.5 mg/ml control A6 antibody on top of sterile glass coverslips for 72 hours at 26 C in a sterile 24 well dish. S. Typhimurium curli mutant (csgBA) and UTI89 curli mutant (csgBA) were also grown as a negative controls. In select conditions, biofilms were incubated for an additional 24 hours at 26 C with 30 ug/ml Ampicillin (Amp). The sterile glass coverslip, which was used as a surface for the biofilm to grow upon, was placed in a sterile 15 ml conical tube that contained 3 ml of sterile PBS. The biofilm was sonicated for 10 seconds at a setting of 4 using a ThermoFisher Sonic Dismembrator. Bacteria were enumerated by serial diluting 1:10 in sterile PBS and spot plating on agar plates.
(§2) Biofilms of S. Typhimurium (STM) or E. coli UTI89 grown in the absence or presence of 3H3 (250 ug/ml, 125 ug/ml, 50 ug/ml, 25 ug/ml, 10 ug/ml, 1 ug/ml) as well as grown with 0.5 mg/ml control A6 antibody on top of sterile glass coverslips for 72 hours at 26 C in a sterile 24 well dish. S. Typhimurium curli mutant (csgBA) and UTI89 curli mutant (csgBA) were also grown as a negative controls. In select conditions, biofilms were incubated for an additional 24 hours at 26 C with 30 ug/ml Ampicillin (Amp). […]
Data set [7] relates to S. Typhimurium biofilm on medical grade catheters. The experiment in a line: In vitro catheter assay: Salmonella biofilms grown on sterile i.v. catheters, GFP and Congo red. Conditions: 0.5 mg/ml for 72 hours.
Method: (§3) Salmonella biofilms were grown alone or in the presence of ALZ3H3 antibody upon sterile i.v. catheters. Bacteria were labeled green using GFP. Congo red was used to stain for curli amyloid fibrils. […] To investigate the combination effect of ALZ3H3 and ampicillin on biofilm growth, mice were given 1 mg/ml Ampicillin in the drinking water 24 hours prior to catheter insertion. Sterile i.v. catheters were incubated for 24 hours with Salmonella typhimurium prior to insertion into the back flanks of Balb/C mice. 24 and 28 hours after catheter insertion 100 ug of ALZ3H3 was percutaneously inserted into the lumen of the catheter. 72 hours after catheter insertion, mice were euthanized and the catheters were removed. Bacteria were labeled green using GFP. Congo red was used to stain for curli amyloid fibrils. Catheters autofluoresced green.
The test system of data set [8] is Salmonella typhimurium catheter biofilm. The experiment in a line: In vivo catheter assay: Salmonella typhimurium colonized catheters inserted into back flanks of mice.
Method: as §3
A further data set deals with T1, Aβ42 conformers (Homo sapiens, UniProt P05067).
T1 construct: Amyloid beta derived diffusible ligands (ADDLs), also known as globulomers, produced from Aβ42
Kind of data set: MAb binding to Aβ42 conformers by surface plasma resonance (SPR). The method, then: MAb binding to Aβ42 conformers was measured by surface plasma resonance (SPR) (Table 1). Calculated affinity constants (KD) were obtained using Qdat software. […] The 3H3 binding data is qualitatively most similar to the 4G1 and 6E10 mAbs.

The values below come from patent publication US12202887B2, “Eradication of bacterial biofilm using anti-amyloid monoclonal antibodies” (priority 2018, dated 2025).

One may read the Kd as a measure of binding affinity in units of concentration.

Like-named read-outs stand apart in the source and are kept apart here.

T1 sequence (P05067 672-713 limits assumed): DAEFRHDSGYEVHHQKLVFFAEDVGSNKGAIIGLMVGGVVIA
Sequence of tau paired helical filaments (TAU PHF) isolated from AD brain homogenates (P10636 623-695 limits assumed): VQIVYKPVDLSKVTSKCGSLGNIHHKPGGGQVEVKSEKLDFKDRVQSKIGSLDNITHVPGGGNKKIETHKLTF
Method for E. coli UTI89 biofilm: as §1, §2

As to DNase, in the data set on S. Typhimurium biofilm [1], the Overall biofilm appearance result is “no alteration in overall biofilm appearance”.
Same read-out and setting: then `CC1(C)S[C@@H]2[C@H](NC(=O)[C@H](N)c3ccccc3)C(=O)N2[C@H]1C(=O)O` [ampicillin], with “no alteration in overall biofilm appearance”.

B1: ALZ.3H3: human monoclonal antibody with pan-amyloid binding activity; heavy chain SEQ ID NO:2, light chain SEQ ID NO:35 (antibody)
VH: MEFGLSWVFLVALLRGVQCQVQLVESGGGVVQPGRSLRLSCAASGFSFSTYGMHWVRQAPGKGLEWVAVISYDGSRKYYADTGKGRFTISRDNSKNTLYLEMNGLRAEDTAVYHCAKDLRRELGFGNRDYHYYGMDAWGQGTTVTVSSASTK
light: LTQPRSVSGSPGQSVTMSCTGTNSDIGGYNYVSWYQQHPGKAPKLMIYDVYKRPSGVPDRFSGSKSGNTASLTISGLQAEDEADYYCCSYAGTNNLIFGGGTKLTVLGQPKAAPSVTLFPPSSEELQANKATLVCLISDFYPGAVTVAWKADSSPVKAGVETTTPSKQSNNKYAASSYLSLTPEQWKSHRSYSCQV
modifications: Chemically Synthesized, ALZ.3H3 Heavy Chain; Chemically Synthesized, ALZ.3H3 Light Chain
On to B1, for which the “Number of particles above the thickness of wild-type biofilm (20 μM)” value with S. Typhimurium biofilm [2] (72 hours at 28° C.) is on record as “significant increase in number of particles”. For the same molecule, the Biofilm architecture result in the data set with S. Typhimurium biofilm [2] (72 hours at 28° C., 3D surface plots) is reported as “altered the architecture of biofilm forming a disperse biofilm topography”. Besides, in the data set with S. Typhimurium biofilm [2] (plating supernatants), the “Bacteria recovered from biofilm supernatant” value was “significantly more bacteria was recovered”. The “Number of particles above the thickness of wild-type biofilm” value in [3] (24 hour pre-established biofilm + 0.5 mg/ml for 24 hours) was “increased the number of particles”; in data set [3] (48 hour pre-established biofilm + 0.5 mg/ml for 24 hours), “the number of particles increased as well”. The Biofilm matrix architecture entry was “began to exhibit a more disperse matrix” in data set [3] (24 hour pre-established biofilm + 0.5 mg/ml for additional 24 hours, vs 48 hour biofilm) and “the biofilm matrix was more disperse” in data set [3] (48 hour pre-established biofilm + 0.5 mg/ml for additional 24 hours, vs 72 hour biofilm). Moreover, the “Lag time (t0) for His-CsgA to self-associate and oligomerize” value in data set [4] (0.5 mg/ml antibody, compared to synthetic peptide CsgAR4-5) is “significant increase in the lag times”. In addition, the “ThT relative fluorescence units (fibril formation)” value in data set [4] (His-CsgA with 0.5 mg/ml antibody) is given as “significant reduction in the relative fluorescence units”. Moreover, in the data set on S. Typhimurium biofilm [1] (0.5 mg/ml ALZ.3H3 during growth, then antibiotic treatment (ampicillin) for additional 24 hours), the Biofilm mass result was “significant reduction in the biofilm mass to the levels below detection”. In addition, the “Binding to Tau PHF” value in data set [5] is “notable for binding to Tau PHF”. In addition, the CFU/biofilm result with E. coli UTI89 biofilm (UTI89 grown with 3H3 (1-250 ug/ml), 72 hours at 26 C) is on record as “reduction of CFU/biofilm”; with E. coli UTI89 biofilm (UTI89 grown with 3H3, then 30 ug/ml Ampicillin for additional 24 hours) it was “additional reduction in CFU/biofilm”; in data set [6] (STM grown with 3H3 (1-250 ug/ml), 72 hours at 26 C), “reduction of CFU/biofilm”; in data set [6] (STM grown with 3H3, then 30 ug/ml Ampicillin for additional 24 hours), “additional reduction in CFU/biofilm”. In addition, in [7], the Catheter biofilm morphology result is on record as “the biofilm was dispersed”. Moreover, the “Congo red staining (curli fibers)” value in data set [7] is “no significant staining with Congo red”. In [8] (100 ug percutaneously into catheter lumen, catheters removed at 72 hours), the “Catheter biofilm morphology and curli” value is “disperse morphology with little curli”. For the same molecule, the “Amyloid incorporation in catheter biofilm” value in data set [8] (combination: 100 ug ALZ3H3 into lumen + 1 mg/ml ampicillin in drinking water) is on record as “little to no amyloid incorporation”.

B2: 4G1: human anti-amyloid mAb cloned from B cells of an Alzheimer's patient; heavy chain SEQ ID NO:61, light chain SEQ ID NO:63 (antibody, V domains shown)
VH: EEHLVESGGALVQPGGSLRLSCEASGFTFRSYWMTWVRQAPGKGLEWLANIKQDGSDYYYVDSVKGRFTISRDNAKNTLYLQMNNLRADDTAVYFCARDARYRDTTWPQYYFYYFMDVWGKGTTVTVSS
VL: DIQLTQSPSSLSASIGDRVTVTCRASQSISNYLNWYQQKPGKAPKLLIYAASNLHTGVPSRFSGSGSGTHFTLTISSLQPEDFATYYCQLSYNNPRTFGPGTTVDIR
modifications: Chemically Synthesized, ALZ.4G1 Heavy Chain; Chemically Synthesized, ALZ.4G1 Light Chain
In the case of B2, the “Binding to Tau PHF” value in data set [5] is reported as “notable for binding to Tau PHF”.

B3: 4A6: human anti-amyloid mAb cloned from B cells of an Alzheimer's patient; heavy chain SEQ ID NO:57, light chain SEQ ID NO:59 (antibody, V domains shown)
VH: QVQLVQSGAEVKKPGASMRVSCKASGYTYTAYYIHWMRQAPGQGLEWMGWINPHIGSTNYAEKFRGRVTLTRDTSIKTAYMDLDRLTSDDTAIYYCARVRAPRSISGTLNSYGMDVWGQGTTVAVSS
VL: DIVMTQSPSSLSASVGDRVVITCRASLRIGTFLNWYQQTQGRAPKLLVSSASTLQSGVPSRFSGSGSGTDFTLTINSLQPEDFATYYCQQSYSTTWTFGQGTKVELK
modifications: Chemically Synthesized, ALZ.4A6 Heavy Chain; Chemically Synthesized, ALZ.4A6 Light Chain
B3: the “Binding preference among Aβ42 conformers” value in the data set with Aβ42 conformers is reported as “preferentially bind Aβ fibrils”. Also, the Kd with Aβ42 conformers (C-terminal biotinylated ADDLs/globulomers, read-out: Calculated affinity constant (KD), CTB oligo) was above 2000 nM; with Aβ42 conformers (N-terminal biotinylated monomers, read-out: Calculated affinity constant (KD), NTB mono) it was above 2000 nM.
